Results published in the supplement of paper PMC9233669.
Variants at the floor of the assay were thinned out.

Legend:
biotinyl-Phe-oxazolone = assay: self-aminoacylation, catalytic enhancement (BFO) (fold over background); higher = more active; k-Seq, kA / k0A0; sequences stand for … in GGGAAUGGAUCCACAUCUACGAAUUC…UUCACUGCAGACUUGACGAAGCUG
Procedure, shortened: (§1)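 Mutagenized RNA pools with a 21-nt variable region (0.43 μM) were reacted with each biotinyl-aminoacyl-oxazolone at 2–1250 μM for 90 minutes at room temperature, in 50 μL HEPES/NaCl/KCl/MgCl2/CaCl2 buffer containing 5% acetonitrile at pH 6.9–7.0. RNA captured on streptavidin was quantified by triplicate qPCR and by Illumina sequencing. The fraction reacted for each sequence was fit to a pseudo-first-order model with bootstrapping, and catalytic enhancement is the median kA divided by the uncatalyzed rate, taken as the low-activity peak of a bimodal Gaussian fit.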

biotinyl-Ile-oxazolone = assay: self-aminoacylation, catalytic enhancement (BIO) (fold over background); higher = more active; k-Seq, kA / k0A0; sequences stand for … in GGGAAUGGAUCCACAUCUACGAAUUC…UUCACUGCAGACUUGACGAAGCUG
Procedure, shortened: as §1

biotinyl-Met-oxazolone = assay: self-aminoacylation, catalytic enhancement (BMO) (fold over background); higher = more active; k-Seq, kA / k0A0; sequences stand for … in GGGAAUGGAUCCACAUCUACGAAUUC…UUCACUGCAGACUUGACGAAGCUG
Procedure, shortened: as §1

biotinyl-Val-oxazolone = assay: self-aminoacylation, catalytic enhancement (BVO) (fold over background); higher = more active; k-Seq, kA / k0A0; sequences stand for … in GGGAAUGGAUCCACAUCUACGAAUUC…UUCACUGCAGACUUGACGAAGCUG
Procedure, shortened: as §1

biotinyl-Leu-oxazolone = assay: self-aminoacylation, catalytic enhancement (BLO) (fold over background); higher = more active; k-Seq, kA / k0A0; sequences stand for … in GGGAAUGGAUCCACAUCUACGAAUUC…UUCACUGCAGACUUGACGAAGCUG
Procedure, shortened: as §1

biotinyl-Trp-oxazolone = assay: self-aminoacylation, catalytic enhancement (BWO) (fold over background); higher = more active; k-Seq, kA / k0A0; sequences stand for … in GGGAAUGGAUCCACAUCUACGAAUUC…UUCACUGCAGACUUGACGAAGCUG
Procedure, shortened: as §1

| Sequence | self-aminoacylation (biotinyl-Phe-oxazolone) | self-aminoacylation (biotinyl-Ile-oxazolone) | self-aminoacylation (biotinyl-Met-oxazolone) | self-aminoacylation (biotinyl-Val-oxazolone) | self-aminoacylation (biotinyl-Leu-oxazolone) | self-aminoacylation (biotinyl-Trp-oxazolone) |
| --- | --- | --- | --- | --- | --- | --- |
| AUUACCCUGGCCAUCGAUUGA [Fam2.1 aminoacylation ribozyme variant] | 0.28 | 0.753 | 1.03 | 0.974 | 0.851 | 0.913 |
| AUUCACCUAGCUCAUUGGGUG [Fam2.2 aminoacylation ribozyme variant] | 5.14 | 1.44 | 1.89 | 1.69 | 1.62 | 2.07 |
| CUACUUCAAAAAAUCGGUCCG [Fam1A.1 aminoacylation ribozyme variant] | 1.57 | 0.724 | 0.749 | 0.604 | 0.761 | 1.31 |
| AUUCCCCUAGGUUAUCGGGUG [Fam2.2 aminoacylation ribozyme variant] | 187 | 12.9 | 20 | 13.3 | 27.6 | 20 |
| AUUUACCUAUGUCAUCGGGUG [Fam2.2 aminoacylation ribozyme variant] | 28 | 3.04 | 4.35 | 2.96 | 6.5 | 4.76 |
| AUUCACCUAGUUCAUCCGGUG [Fam2.2 aminoacylation ribozyme variant] | 21.9 | 3.1 | 3.23 | 2.52 | 3.89 | 3.54 |
| AAUACCCUGAUCAUCGAGUGA [Fam2.1 aminoacylation ribozyme variant] | 18.6 | 2.79 | 6.32 | 3.21 | 6.22 | 7.59 |
| CCACACUUCAAGCUAUCGGCC [Fam1B.1 aminoacylation ribozyme variant] | 0.862 | 1.62 | 1.7 | 1.51 | 1.82 | 1.81 |
| CUACUUCAAAUAAUCGGUCCG [Fam1A.1 aminoacylation ribozyme variant] | 2.68 | 0.585 | 0.599 | 0.657 | 0.654 | 1.76 |
| AUUCACCUACGUCAUCGGGUG [Fam2.2 aminoacylation ribozyme variant] | 36.7 | 3.24 | 5.27 | 3.38 | 6.98 | 4.79 |
| AUUCACCUAGGUCUACGGGUG [Fam2.2 aminoacylation ribozyme variant] | 27.6 | 3.16 | 4.62 | 3.11 | 4.92 | 4.07 |
| AGGUUUGGUAAUAGUCGCAAG [Fam3.1 aminoacylation ribozyme variant] | 3.19 | 1.82 | 1.72 | 1.41 | 1.77 | 2.22 |
| CUACUUCAAACAACCGGUAUG [Fam1A.1 aminoacylation ribozyme variant] | 0.739 | 0.785 | 0.707 | 0.805 | 0.803 | 0.873 |
| AUUACCCUGGUCCUCGCGUGA [Fam2.1 aminoacylation ribozyme variant] | 87.3 | 5.45 | 11 | 7.66 | 15.1 | 13.8 |
| GUACUUCAAACAUUCGGUCUG [Fam1A.1 aminoacylation ribozyme variant] | 6.13 | 1.63 | 1.6 | 1.96 | 1.66 | 2.34 |
| CUACUUCAAACGAUCGCUCUG [Fam1A.1 aminoacylation ribozyme variant] | 1.11 | 0.842 | 0.689 | 0.838 | 0.654 | 0.678 |
| AUUCACCUAGGUCUUCGGCUG [Fam2.2 aminoacylation ribozyme variant] | 6.94 | 2.12 | 1.8 | 1.87 | 2.59 | 1.46 |
| CCACACUGCAAGCAAUCGAUC [Fam1B.1 aminoacylation ribozyme variant] | 1.39 | 0.9 | 0.56 | 1.07 | 0.739 | 0.727 |
| UUUACCCUGGUCACCGAGUGA [Fam2.1 aminoacylation ribozyme variant] | 44.3 | 3.3 | 7.62 | 4.12 | 7.47 | 8 |
| AUUACCCUGGUCAUCGAGUUA [Fam2.1 aminoacylation ribozyme variant] | 26.4 | 4.08 | 10.8 | 4.86 | 10.3 | 8.28 |
| CUAAUUCAAACAAUCGGGCUG [Fam1A.1 aminoacylation ribozyme variant] | 1.49 | 0.805 | 0.87 | 0.852 | 1.02 | 1.14 |
| AUUCACAUAGGUCAUCAGGUG [Fam2.2 aminoacylation ribozyme variant] | 1.62 | 1.2 | 1.41 | 1.4 | 1.63 | 1.85 |
| UAGUUUGCUAAUAGUCACAAG [Fam3.1 aminoacylation ribozyme variant] | 5.1 | 1.41 | 1.51 | 1.31 | 1.76 | 2.38 |
| AUGACCCUGGGCAUCGAGUGA [Fam2.1 aminoacylation ribozyme variant] | 42.4 | 3.97 | 7.08 | 3.32 | 8.34 | 7.35 |
| AUUACCCUGGUCCUCGGGUGA [Fam2.1 aminoacylation ribozyme variant] | 69.6 | 5.18 | 9.89 | 6.25 | 10.4 | 9.25 |
| CGACACUUCAAGCAAUCGAUC [Fam1B.1 aminoacylation ribozyme variant] | 0.965 | 0.672 | 0.582 | 0.727 | 0.611 | 0.715 |

| Sequence | self-aminoacylation (biotinyl-Phe-oxazolone) | self-aminoacylation (biotinyl-Ile-oxazolone) | self-aminoacylation (biotinyl-Met-oxazolone) | self-aminoacylation (biotinyl-Val-oxazolone) | self-aminoacylation (biotinyl-Leu-oxazolone) | self-aminoacylation (biotinyl-Trp-oxazolone) |
| --- | --- | --- | --- | --- | --- | --- |
| AUUUACCUAGCUCAUCGGGUG [Fam2.2 aminoacylation ribozyme variant] | 8.53 | 2.01 | 2.16 | 2.4 | 2.58 | 2.04 |
| CUAAUGCAAACAAUCGGUCUG [Fam1A.1 aminoacylation ribozyme variant] | 0.853 | 0.612 | 0.631 | 0.577 | 0.55 | 0.581 |
| CUACUUCAAGCACUCGGUCUG [Fam1A.1 aminoacylation ribozyme variant] | 2.08 | 1.23 | 0.971 | 1.3 | 1.17 | 1.28 |
| AAGUCUGCUAAUAGCCGCAAG [Fam3.1 aminoacylation ribozyme variant] | 8.57 | 1.11 | 1.13 | 1.02 | 0.989 | 3.25 |
| AUUCACCUAUGUCAUCGAGUG [Fam2.2 aminoacylation ribozyme variant] | 17.2 | 3.35 | 4.64 | 2.98 | 5.42 | 4.95 |
| AUUCAGCUAGGUCAUCGGGUG [Fam2.2 aminoacylation ribozyme variant] | 35 | 3.7 | 4.92 | 4.2 | 5.83 | 5.34 |
| CUAAUACAAACAAUCGGUCUG [Fam1A.1 aminoacylation ribozyme variant] | 0.757 | 0.676 | 0.674 | 0.682 | 0.477 | 0.678 |
| AUUACACUGGUCAUCGACUGA [Fam2.1 aminoacylation ribozyme variant] | 1.11 | 1 | 0.596 | 0.965 | 0.807 | 0.546 |
| CUACUUCAAACCAUCGGUCCG [Fam1A.1 aminoacylation ribozyme variant] | 0.607 | 0.761 | 0.868 | 0.922 | 0.996 | 0.99 |
| AUUCACCGAGGCCAUCGGGUG [Fam2.2 aminoacylation ribozyme variant] | 32.8 | 3.16 | 5.31 | 4.36 | 6.39 | 4.78 |
| AUUACCCUGGUUCUCGAGUGA [Fam2.1 aminoacylation ribozyme variant] | 8.08 | 1.78 | 2.08 | 2.2 | 3.1 | 3.34 |
| AUUUCCCUGGUCAUGGAGUGA [Fam2.1 aminoacylation ribozyme variant] | 22 | 2.96 | 4.2 | 2.89 | 4.22 | 4.72 |
| CCACACGUCGAGCAAUCGGUC [Fam1B.1 aminoacylation ribozyme variant] | 0.83 | 1.17 | 0.959 | 2.02 | 1.41 | 1.22 |
| CCACACUUCCAGCAAUCGCUC [Fam1B.1 aminoacylation ribozyme variant] | 1.22 | 1.69 | 1.54 | 1.83 | 1.35 | 1.59 |
| CCACACUUCUAGCCAUCGGUC [Fam1B.1 aminoacylation ribozyme variant] | 1.09 | 0.924 | 0.683 | 1.01 | 0.778 | 0.962 |
| AUUCCCUUAGGUCAUCGGGUG [Fam2.2 aminoacylation ribozyme variant] | 295 | 19.3 | 33.4 | 20.2 | 44.3 | 30.7 |
| AAGUAUGCUAAUAGUCCCAAG [Fam3.1 aminoacylation ribozyme variant] | 3.66 | 1.14 | 1.18 | 1.16 | 1.02 | 1.54 |
| CCACACUUCAGGCUAUCGGUC [Fam1B.1 aminoacylation ribozyme variant] | 0.514 | 1.33 | 1.1 | 1.33 | 1.23 | 1.39 |
| AAGUUUUCUAAUCGUCGCAAG [Fam3.1 aminoacylation ribozyme variant] | 2.56 | 1.75 | 1.68 | 1.69 | 1.79 | 1.65 |
| AUUAGCCUUGUCAUCGAGUGA [Fam2.1 aminoacylation ribozyme variant] | 6.72 | 2.85 | 3.73 | 2.76 | 3.97 | 4.07 |
| CUACUGCAAACAAUCGGUCUG [Fam1A.1 aminoacylation ribozyme variant] | 1.08 | 0.804 | 0.769 | 0.844 | 0.776 | 0.77 |
| AAGUUUGCUAGGAGUCGCAAG [Fam3.1 aminoacylation ribozyme variant] | 0.649 | 0.788 | 0.673 | 0.745 | 0.459 | 1.02 |
| CCACACUUCAAGCAAUCUGAC [Fam1B.1 aminoacylation ribozyme variant] | 0.63 | 0.493 | 0.41 | 0.549 | 0.325 | 0.429 |
| AUUACCCUGGGCAUCGAGUCA [Fam2.1 aminoacylation ribozyme variant] | 0.615 | 0.946 | 0.719 | 0.768 | 0.72 | 0.708 |
| AUUAACCUAGGUCAUCGGGUG [Fam2.2 aminoacylation ribozyme variant] | 248 | 19.7 | 33.2 | 15.8 | 46.3 | 22.8 |
